Measurements from US20250066745A1, “MUTANTS AND USE THEREOF” (BGI SHENZHEN, priority 2021, published 2025).

Tests used:
Format in all cases: biochemical
Parameters in all cases: key to Activity of mutant relative to wild-type Gaussia luciferase without the signal peptide: ratio of mutant luminescence intensity to wild-type Gaussia luciferase
[1] = Luminescence activity assay of purified Gaussia luciferase mutants on coelenterazine; settings: Substrate CTZ (Table 16)
In short: (§1)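 Readout: luminescence intensity, as ratio to signal-peptide-free wild-type enzyme. Enzyme 1 μg/mL, substrate 100 μM stock, 10 μL + 90 μL; buffer 50 mM Tris-HCl pH 8.0, 100 mM NaCl, 0.1% Tween-20.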

[2] = Luminescence activity assay of purified Gaussia luciferase mutants on fluoro-coelenterazine; settings: Substrate f-CTZ (Table 16)
Method: In this Example, the protein concentration was determined with a BCA quantitative kit (Thermo Scientific™ Pierce™ BCA Protein Assay Kit) accurately. The purified luciferase obtained in Example 5 was diluted with diluent (50 mM Tris-HCl, pH 8.0, 100 mM NaCl, 0.1% (v/v) Tween-20) to 1 μg/mL. The diluted luciferase, taken for 10 μL, was moved into a black 96-well plate, then added with 90 μL of the substrates coelenterazine, fluoro-coelenterazine or coelenterazine derivative ZS2 (purchased from Biolab) which was diluted into 100 μM with the same diluent, and the luminescence intensity of the plate was read with a self-luminescence module of a microplate reader. The mutation site of the mutant, the measured luminescence intensity, the ratio of luminescence intensities of the advantageous mutants to the wild-type Gaussia luciferase without the signal peptide having the sequence shown in SEQ ID NO: 3 are shown in Table 15. The results of catalytic activity assay of the advantageous mutants relative to the wild-type Gaussia luciferase without the signal peptide having the sequence shown in SEQ ID NO: 3 on substrate coelenterazine are shown in FIG. 6. […] The results of catalytic activity assay of the advantageous mutants relative to the wild-type Gaussia luciferase without the signal peptide having the sequence shown in SEQ ID NO: 3 on substrate fluoro-coelenterazine are shown in FIG. 7.
The new mutant library constructed in Example 7 was screened and tested for substrate specificity. Expression and purification schemes were the same as that in Example 5, and the activity assay scheme was the same as that in Example 6. The respective catalytic activities of combinatorial mutants on coelenterazine, fluoro-coelenterazine or coelenterazine derivative ZS2, and coelenterazine derivative ZS26 (purchased from BIOLAB) were assayed, and comparisons among the substrate specificities of the combinatorial mutants were based on the ratios of catalytic activities on two corresponding substrates.

[3] = Luminescence activity assay of purified Gaussia luciferase mutants on coelenterazine derivative ZS2; settings: Substrate ZS2 (Table 16)
In short: as §1

Activity of mutant relative to wild-type Gaussia luciferase without the signal peptide [1]	Activity of mutant relative to wild-type Gaussia luciferase without the signal peptide [2]	Activity of mutant relative to wild-type Gaussia luciferase without the signal peptide [3]	Molecule
0.000	0.007	0.001	H79K P84A E102S S103I A104G E110P L124M: Gaussia luciferase mutant (protein, SIGNAL (1)..(17), Gaussia luciferase mutant) MGVKVLFALICIAVAEAKPTENNEDFNIVAVASNFATTDLDADRGKLPGKKLPLEVLKEMEANARKAGCTRGCLICLSKIKCTAKMKKFIPGRCHTYEGDKSIGQGGIGPAIVDIPEIPGFKDMEPMEQFIAQVDLCVDCTTGCLKGLANVQCSDLLKKWLPQRCATFASKIQGQVDKIKGAGGD
0.134	0.794	0.471	K66N E102D S103T E110G L124M V138E: Gaussia luciferase mutant (protein, SIGNAL (1)..(17), Gaussia luciferase mutant) MGVKVLFALICIAVAEAKPTENNEDFNIVAVASNFATTDLDADRGKLPGKKLPLEVLKEMEANARNAGCTRGCLICLSHIKCTPKMKKFIPGRCHTYEGDKDTAQGGIGGAIVDIPEIPGFKDMEPMEQFIAQVDLCEDCTTGCLKGLANVQCSDLLKKWLPQRCATFASKIQGQVDKIKGAGGD
1.554	0.404	0.751	K66N H79K E102D E110P L124M: Gaussia luciferase mutant (protein, SIGNAL (1)..(17), Gaussia luciferase mutant) MGVKVLFALICIAVAEAKPTENNEDFNIVAVASNFATTDLDADRGKLPGKKLPLEVLKEMEANARNAGCTRGCLICLSKIKCTPKMKKFIPGRCHTYEGDKDSAQGGIGPAIVDIPEIPGFKDMEPMEQFIAQVDLCVDCTTGCLKGLANVQCSDLLKKWLPQRCATFASKIQGQVDKIKGAGGD
0.945	6.874	1.880	K66N E102A S103T A104G E110G D123N L124M V138D K180: Gaussia luciferase mutant (protein) MGVKVLFALICIAVAEAKPTENNEDFNIVAVASNFATTDLDADRGKLPGKKLPLEVLKEMEANARNAGCTRGCLICLSHIKCTPKMKKFIPGRCHTYEGDKATGQGGIGGAIVDIPEIPGFKNMEPMEQFIAQVDLCDDCTTGCLKGLANVQCSDLLKKWLPQRCATFASKIQGQVDKIKGAGGD
0.094	0.936	0.068	H79K P84L V138D: Gaussia luciferase mutant (protein, SIGNAL (1)..(17), Gaussia luciferase mutant) MGVKVLFALICIAVAEAKPTENNEDFNIVAVASNFATTDLDADRGKLPGKKLPLEVLKEMEANARKAGCTRGCLICLSKIKCTLKMKKFIPGRCHTYEGDKESAQGGIGEAIVDIPEIPGFKDLEPMEQFIAQVDLCDDCTTGCLKGLANVQCSDLLKKWLPQRCATFASKIQGQVDKIKGAGGD
1.921	13.108	0.064	H79K P84L S103T A104G E110A: Gaussia luciferase mutant (protein, SIGNAL (1)..(17), Gaussia luciferase mutant) MGVKVLFALICIAVAEAKPTENNEDFNIVAVASNFATTDLDADRGKLPGKKLPLEVLKEMEANARKAGCTRGCLICLSKIKCTLKMKKFIPGRCHTYEGDKETGQGGIGAAIVDIPEIPGFKDLEPMEQFIAQVDLCVDCTTGCLKGLANVQCSDLLKKWLPQRCATFASKIQGQVDKIKGAGGD
0.654	0.896	0.620	K66N P84A E102K S103I E110G L124M V138E: Gaussia luciferase mutant (protein, SIGNAL (1)..(17), Gaussia luciferase mutant) MGVKVLFALICIAVAEAKPTENNEDFNIVAVASNFATTDLDADRGKLPGKKLPLEVLKEMEANARNAGCTRGCLICLSHIKCTAKMKKFIPGRCHTYEGDKKIAQGGIGGAIVDIPEIPGFKDMEPMEQFIAQVDLCEDCTTGCLKGLANVQCSDLLKKWLPQRCATFASKIQGQVDKIKGAGGD
0.750	0.479	0.452	H79K P84K E102K S103I V138E: Gaussia luciferase mutant (protein, SIGNAL (1)..(17), Gaussia luciferase mutant) MGVKVLFALICIAVAEAKPTENNEDFNIVAVASNFATTDLDADRGKLPGKKLPLEVLKEMEANARKAGCTRGCLICLSKIKCTKKMKKFIPGRCHTYEGDKKIAQGGIGEAIVDIPEIPGFKDLEPMEQFIAQVDLCEDCTTGCLKGLANVQCSDLLKKWLPQRCATFASKIQGQVDKIKGAGGD
0.755	1.728	1.118	K66N H79K P84K E102K S103I E110P L124M: Gaussia luciferase mutant (protein, SIGNAL (1)..(17), Gaussia luciferase mutant) MGVKVLFALICIAVAEAKPTENNEDFNIVAVASNFATTDLDADRGKLPGKKLPLEVLKEMEANARNAGCTRGCLICLSKIKCTKKMKKFIPGRCHTYEGDKKIAQGGIGPAIVDIPEIPGFKDMEPMEQFIAQVDLCVDCTTGCLKGLANVQCSDLLKKWLPQRCATFASKIQGQVDKIKGAGGD
0.071	0.086	0.116	I10T C11S A13D A15I E16R A17S: Gaussia luciferase mutant (protein, SIGNAL (1)..(17), Gaussia luciferase mutant) MGVKVLFALTSIDVIRSKPTENNEDFNIVAVASNFATTDLDADRGKLPGKKLPLEVLKEMEANARKAGCTRGCLICLSHIKCTPKMKKFIPGRCHTYEGDKESAQGGIGEAIVDIPEIPGFKDLEPMEQFIAQVDLCVDCTTGCLKGLANVQCSDLLKKWLPQRCATFASKIQGQVDKIKGAGGD
2.527	0.520	1.065	A42G Q152C T167G S170T G174N K178S A182Y G183A: Gaussia luciferase mutant (protein, SIGNAL (1)..(17), Gaussia luciferase mutant) MGVKVLFALICIAVAEAKPTENNEDFNIVAVASNFATTDLDGDRGKLPGKKLPLEVLKEMEANARKAGCTRGCLICLSHIKCTPKMKKFIPGRCHTYEGDKESAQGGIGEAIVDIPEIPGFKDLEPMEQFIAQVDLCVDCTTGCLKGLANVCCSDLLKKWLPQRCAGFATKIQNQVDSIKGYAGD
0.000	0.009	0.001	K66N H79K P84A E102E S103I D123N L124M V138E K159N I179*: Gaussia luciferase mutant (protein, SIGNAL (1)..(17), Gaussia luciferase mutant) MGVKVLFALICIAVAEAKPTENNEDFNIVAVASNFATTDLDADRGKLPGKKLPLEVLKEMEANARNAGCTRGCLICLSKIKCTAKMKKFIPGRCHTYEGDKEIAQGGIGEAIVDIPEIPGFKNMEPMEQFIAQVDLCEDCTTGCLKGLANVQCSDLLKNWLPQRCATFASKIQGQVDKKGAGGD
